Consider three compounds from paper doi:10.1101/2025.09.11.675134, “Biodistribution-Driven Discovery Identifies a Glycosidase-Cleavable Linker to Reprogram Radiotheranostics” (bioRxiv, 2025).

Each structure is given as a SMILES string. Read-outs that look alike come from different tables or passages of the source.

The nature of the data set: Ex vivo biodistribution screen of 111In-labeled DOTA-TATE derivatives in normal mice. Set-up: species or system athymic nude mice. The following applies: 2 h post-injection; for tissue uptake at 2 h: athymic nude, mouse, iv, 1 ug per mouse, total radioactivity, normal athymic nude mice, mean; for Relative kidney retention, % rel. to DOTA-TATE: normal mice, 111In-DOTA-TATE set as 100%. The protocol:
The panel of 10 compounds were then tested in an initial biodistribution screen of 9 organs assessed in non-tumor-bearing mice at specific timepoints following administration of the radioconjugates. Each agent was initially labeled with ^111In, a long-lived gamma-emitting radioisotope suitable for biodistribution studies, with high radiochemical yields and purity (Fig. S12). The compounds were then dosed (1.55 ± 0.12 MBq; 1 μg per mouse) in healthy athymic nude mice via intravenous (i.v.) injection in phosphate-buffered saline (PBS; vehicle). After 2 hours, the mice were sacrificed and ex vivo biodistribution analysis was performed (Fig. 2). […] This was an expected finding because this variant was designed to bind serum albumin.
Radiolabeling and In Vivo Evaluation of DOTA-TATE Variants:
Biodistribution, PET Quantification, and Dosimetry
Radiolabeling: To perform the initial biodistribution screen, radiolabeling of 10 compounds, including DOTA-TATE, was carried out using 111In (Cardinal Health, Arbutus, MD, USA), an affordable and readily available gamma -emitting radioisotope with a moderate half -life (2.83 days), which affords efficient DOTA radiolabeling and facilitates handling. 111InCl3 (28 – 36 MBq) was diluted with 0.4 M NH 4OAc buffer (pH 5.2) and combined with DOTA -TATE variants (20 μg). The solution was mixed well and then incubated at 90 °C for 30 min.
Radiolabeling efficiency and radiochemical purity were determined by radio -TLC and radio - HPLC. Radiochemical yield was >95% and the material was used without further purification.
The specific activity was 1.55 ± 0.12 TBq/g (41.9 ± 3.2 Ci/g). […]
Radio-instant thin-layer chromatography (radio-iTLC) was performed using silicic acid-impregnated glass microfiber paper strips (iTLC-SA, Varian, Lake Forest, CA, USA) as the stationary phase, and 50 mM EDTA in 100 mM NH4OAc (pH 5.5) as the mobile phase, analyzed with a radio-TLC scanner (AR-2000, Eckert-Ziegler, Wilmington, MA, USA). For Ac-225, equilibration was allowed for at least 12 hours before scanning the TLC strips to confirm initial scans. Radio-HPLC analysis (Agilent 1260 Infinity II, Agilent Technologies Inc., Santa Clara, CA, USA) was conducted on a TSK- Octadecyl-4PW column (5 µm, 4.6 mm ID × 15 cm, Tosoh
Co. Tokyo, Japan) with gradient elution using 0.1% trifluoroacetic acid in water as mobile phase A and 0.1% trifluoroacetic acid in acetonitrile as Mobile phase B. The elution sequence was 0-5 […]
PET imaging and biodistribution: For initial biodistribution screen studies, normal mice were administered 1.4 – 1.8 MBq (1 μg) of 111In-DOTA-TATE variants via tail vein injection and biodistribution studies were conducted at 2 hours post -injection (n = 2 – 4 per cohort).
For studies involving three variants (DOTA -TATE, DOTA-MVK(ε)-TATE, and DOTA-β-Gal-TATE), AR42J cells (5 × 10^6 cells per mouse) were subcutaneously inoculated into the right shoulder of the mice. Tumors were allowed to grow for 3 weeks, reaching a volume of 100 –200 mm³ before being used in subsequent experiments. For biodistribution or PET imaging studies, mice bearing subcutaneous AR42J tumors were administered 1.4 – 1.8 MBq (1 μg) of 111In-labeled DOTA-TATE variants or 2.7 – 4.9 MBq (1 μg) of 86Y-labeled DOTA-TATE variants via tail vein injection. Biodistribution studies with 111In-labeled DOTA -TATE variants were performed 1 hour post -injection (n = 3 per cohort), while studies with 86Y-labeled DOTA-TATE variants were conducted at 1, 4, and 24 hours post -injection (n = 3 per cohort). Mice were euthanized by CO2 asphyxiation, and 10 tissues, including tumors, were collected. All samples were weighed and counted on a gamma counter (2480 Wizard 3, Perkin Elmer Inc., Waltham, MA, USA). Results are presented as percentage of injected activity per gram (%IA/g) and mean values ± standard deviations.
PET imaging to assess the uptake of three 86Y-labeled DOTA-TATE variants (2.7 – 4.9 MBq, 1 […]

The mark [1] stands for this setting: blood, i.v. 1 μg (1.4–1.8 MBq), ex vivo gamma counting, n = 2–4, read-out: Blood uptake.
Setting [2] is: femur, i.v. 1 μg, ex vivo, n = 2–4, read-out: Femur uptake.
Where [3] appears, read: heart, i.v. 1 μg, ex vivo, n = 2–4, read-out: Heart uptake.
[4] abbreviates: intestine, i.v. 1 μg, ex vivo, n = 2–4, read-out: Intestine uptake.
The mark [5] stands for this setting: liver, i.v. 1 μg, ex vivo, n = 2–4, read-out: Liver uptake.
Where [6] appears, read: lung, i.v. 1 μg, ex vivo, n = 2–4, read-out: Lung uptake.
The mark [7] stands for this setting: muscle, i.v. 1 μg, ex vivo, n = 2–4, read-out: Muscle uptake.
[8] abbreviates: spleen, i.v. 1 μg, ex vivo, n = 2–4, read-out: Spleen uptake.

With `CSCC[C@H](NC(=O)CN1CCN(CC(=O)O)CCN(CC(=O)O)CCN(CC(=O)O)CC1)C(=O)N[C@H](C(=O)N[C@@H](CCCCNC(=O)CCCC(=O)N[C@H](Cc1ccccc1)C(=O)N[C@H]1CSSC[C@@H](C(=O)N[C@H](C(=O)O)[C@@H](C)O)NC(=O)[C@H]([C@@H](C)O)NC(=O)[C@H](CCCCN)NC(=O)[C@@H](Cc2c[nH]c3ccccc23)NC(=O)[C@H](Cc2ccc(O)cc2)NC1=O)C(=O)O)C(C)C` [^111In-DOTA-MVK(ε)-TATE, metal not drawn], the “Relative kidney retention, % rel. to DOTA-TATE” value amounted to 67%. Besides, under setting [1], the tissue uptake at 2 h is 0.15 %ID/g. Further, the tissue uptake at 2 h under setting [2] is 0.31 %ID/g. Further, under setting [3], the tissue uptake at 2 h stood at 0.11 %ID/g. The tissue uptake at 2 h under setting [4] turned out to be 0.83 %ID/g. Besides, under setting [5], the tissue uptake at 2 h is 0.16 %ID/g. Further, the tissue uptake at 2 h under setting [6] was 0.33 %ID/g. In addition, under setting [7], the tissue uptake at 2 h worked out at 0.06 %ID/g. In addition, under setting [8], the tissue uptake at 2 h was found to be 0.12 %ID/g.
Turning to `C[C@@H](O)[C@H](NC(=O)[C@@H]1CSSC[C@H](NC(=O)[C@@H](Cc2ccccc2)NC(=O)CN2CCN(CC(=O)O)CCN(CC(=O)O)CCN(CC(=O)O)CC2)C(=O)N[C@@H](Cc2ccc(O)cc2)C(=O)N[C@H](Cc2c[nH]c3ccccc23)C(=O)N[C@@H](CCCCN)C(=O)N[C@@H]([C@@H](C)O)C(=O)N1)C(=O)O` [^111In-DOTA-TATE, metal not drawn, reference compound], the tissue uptake at 2 h under setting [1] amounted to 0.04 %ID/g; the tissue uptake at 2 h under setting [2] is 0.05 %ID/g; the tissue uptake at 2 h under setting [3] turned out to be 0.03 %ID/g; the tissue uptake at 2 h under setting [4] stood at 0.51 %ID/g; the tissue uptake at 2 h under setting [5] came to 0.09 %ID/g; the tissue uptake at 2 h under setting [6] came out at 0.18 %ID/g. Further, the tissue uptake at 2 h runs as follows: under setting [7], 0.01 %ID/g; under setting [8], 0.06 %ID/g.
`C[C@@H](O)[C@H](NC(=O)[C@@H]1CSSC[C@H](NC(=O)[C@@H](Cc2ccccc2)NC(=O)CCCC(=O)Nc2cc(COC(=O)N(C)CCNC(=O)CN3CCN(CC(=O)O)CCN(CC(=O)O)CCN(CC(=O)O)CC3)ccc2O[C@@H]2O[C@H](CO)[C@H](O)[C@H](O)[C@H]2O)C(=O)N[C@@H](Cc2ccc(O)cc2)C(=O)N[C@H](Cc2c[nH]c3ccccc23)C(=O)N[C@@H](CCCCN)C(=O)N[C@@H]([C@@H](C)O)C(=O)N1)C(=O)O` [^111In-DOTA-β-Gal-TATE, metal not drawn]: the “Relative kidney retention, % rel. to DOTA-TATE” value stood at 67%. Further, the tissue uptake at 2 h (in vivo, i.v. 1 μg (1.4–1.8 MBq), ex vivo gamma counting, n = 2–4, read-out: Blood uptake) was found to be 0.04 %ID/g. In addition, the tissue uptake at 2 h (in vivo, i.v. 1 μg, ex vivo, n = 2–4, read-out: Femur uptake) is 0.07 %ID/g. For the same compound, the tissue uptake at 2 h (in vivo, i.v. 1 μg, ex vivo, n = 2–4, read-out: Heart uptake) was 0.03 %ID/g. Moreover, the tissue uptake at 2 h (in vivo, i.v. 1 μg, ex vivo, n = 2–4, read-out: Intestine uptake) turned out to be 0.49 %ID/g. Moreover, the tissue uptake at 2 h (in vivo, i.v. 1 μg, ex vivo, n = 2–4, read-out: Liver uptake) was found to be 0.11 %ID/g. Besides, where the note is “in vivo, i.v. 1 μg, ex vivo, n = 2–4, read-out: Lung uptake”, the tissue uptake at 2 h was determined as 0.28 %ID/g. Further, where the note is “in vivo, i.v. 1 μg, ex vivo, n = 2–4, read-out: Muscle uptake”, the tissue uptake at 2 h came out at 0.02 %ID/g. Also, the tissue uptake at 2 h (in vivo, i.v. 1 μg, ex vivo, n = 2–4, read-out: Spleen uptake) was determined as 0.08 %ID/g.
